From PMC12221982, “The structure of the complete extracellular bacterial flagellum reveals the mechanism of flagellin incorporation” (Nature Microbiology, 2025) come the findings set out here.

Data set [1] concerns the molecule itself. Briefly: cryo-EM structure; single-particle cryo-EM of the same purified short flagella of S. enterica EM16009; hook-filament junction map at 2.9 Å; model of 13 FlgE, 11 FlgK, 11 FlgL and 14 FliC.
Data set [2] concerns the molecule itself. Put plainly: cryo-EM structure; single-particle cryo-EM of flagellar hook tips on C. jejuni ΔflhG ΔflaAB minicells (no filament); cap-HFJ map at 6.5 Å; model of 11 FlgK, 11 FlgL and 5 FliD fitted as rigid bodies and refined.
In data set [3] the target is T1, FliC flagellin (S. enterica) (S. enterica subsp. enterica serovar …, UniProt P06179 1-495).
T1 construct: FliC, phase 1 flagellin of Salmonella enterica subsp. enterica serovar Typhimurium LT2; domains D0 to D3; […]; There are 17 copies in the cap model and 14 in the HFJ model; also called filament; source: S. enterica strain EM16009, chromosomal fliC under the inducible PtetA promoter (30 min AnTc); part of purified short flagella
T1 sequence (P06179 whole entry): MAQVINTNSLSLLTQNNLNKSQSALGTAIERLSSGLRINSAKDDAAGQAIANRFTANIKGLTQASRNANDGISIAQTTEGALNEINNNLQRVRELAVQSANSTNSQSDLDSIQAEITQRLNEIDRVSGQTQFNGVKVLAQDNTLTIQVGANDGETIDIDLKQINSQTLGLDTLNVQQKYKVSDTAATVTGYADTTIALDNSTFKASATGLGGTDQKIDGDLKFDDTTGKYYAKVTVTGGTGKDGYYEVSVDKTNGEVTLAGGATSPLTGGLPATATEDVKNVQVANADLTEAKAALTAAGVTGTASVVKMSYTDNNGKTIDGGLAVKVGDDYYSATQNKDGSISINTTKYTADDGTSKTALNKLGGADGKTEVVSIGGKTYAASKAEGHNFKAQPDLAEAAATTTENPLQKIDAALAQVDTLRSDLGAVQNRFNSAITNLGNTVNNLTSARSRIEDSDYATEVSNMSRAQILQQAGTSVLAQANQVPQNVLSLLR
Put plainly: cryo-EM structure; single-particle cryo-EM of purified short flagella of S. enterica EM16009 (buffer B: 10 mM Tris pH 8, 5 mM EDTA, 0.01% DDM); cap-filament map at 3.7 Å; model of 5 FliD and 17 FliC. To be noted: both partners purified.

Data set [4] concerns the molecule itself. The data set is described as above.
In data set [5] the target is T1, FliC flagellin (S. enterica). Put plainly: cryo-EM structure; single-particle cryo-EM of the same purified short flagella of S. enterica EM16009; hook-filament junction map at 2.9 Å; model of 13 FlgE, 11 FlgK, 11 FlgL and 14 FliC. To be noted: both partners purified.

B1: FlgK hook-filament junction protein (S. enterica) (natural protein)
chain: MSSLINHAMSGLNAAQAALNTVSNNINNYNVAGYTRQTTILAQANSTLGAGGWIGNGVYVSGVQREYDAFITNQLRGAQNQSSGLTTRYEQMSKIDNLLADKSSSLSGSLQSFFTSLQTLVSNAEDPAARQALIGKAEGLVNQFKTTDQYLRDQDKQVNIAIGSSVAQINNYAKQIANLNDQISRMTGVGAGASPNDLLDQRDQLVSELNKIVGVEVSVQDGGTYNLTMANGYTLVQGSTARQLAAVPSSADPTRTTVAYVDEAAGNIEIPEKLLNTGSLGGLLTFRSQDLDQTRNTLGQLALAFADAFNAQHTKGYDADGNKGKDFFSIGSPVVYSNSNNADKTVSLTAKVVDSTKVQATDYKIVFDGTDWQVTRTADNTTFTATKDADGKLEIDGLKVTVGTGAQKNDSFLLKPVSNAIVDMNVKVTNEAEIAMASESKLDPDVDTGDSDNRNGQALLDLQNSNVVGGNKTFNDAYATLVSDVGNKTSTLKTSSTTQANVVKQLYKQQQSVSGVNLDEEYGNLQRYQQYYLANAQVLQTANALFDALLNIR
notes: FlgK, hook-filament junction protein (proximal layer) of Salmonella enterica subsp. enterica serovar Typhimurium LT2; […]; Eleven subunits form the proximal layer of the hook-filament junction; also called HFJ; FlgKL; source: endogenous, S. enterica strain EM16009; part of purified short flagella
For the molecule B1, the “stoichiometry N” value in data set [1] amounted to 11 subunits.

B2: FlgL hook-filament junction protein (C. jejuni) (natural protein)
chain: MRITNKLNFTNSVNNSMGGQSALYQISQQLASGLKIQNSYEDASTYIDNTRLEYEIKTLEQVKESTSRAQEMTQNSMKALQDMVKLLEDFKVKVTQAASDSNSQTSREAIAKELERIKESIVQLANTSVNGQYLFAGSQVANKPFDSNGNYYGDKNNINVVTGAGTESPYNIPGWDLFFKADGDYKKQISTNVSFTDNRWDLNKDPDKTKYLTGDSKWQQLIGQGYVKDNSLDADKDFEYDDSKLDFPPTTLYVQGTKPDGTSFKSAVLVKPEDTLEDVMENIGALYGNTPNNKVVEVSMNDSGQIQITDLKQGNNKLDFHAVAFTPQADTKDELKNIIEAANQEGISMNEVTNRVMQAATAAPSNGDITKLNNPVTVTINNQQFTIDLKQTDFIKSKMTDTDGNAANGADYDNVYFEKNGNTVYGNVSQVIKGSNAYATDSTKLSEVMAGDSLNGTTLNLKVNSKGGNSYDVTINLQTSTVSYPDPNNPGQTISFPIMHTNPATGNSGVVTGSNDITYGQINDIIGMFAADKIPTTTIQANNGQINNADYTQIQQLMKDSQATVDVSMDYKGRISVTDKLSSGTNIEISLSDSQSGQFPAPPFTTTSTVQNGPNFSFSANNSLTIDEPNVDIIKDLDSMIDAVLKGNMRADSESENPRNTGMQGALERLDHLADHVSKLNTTMGAYHNTIEGVNTRTSFLSVNVQSIKSNVIDVDYGEAMMNLMQVQLAYQASLKASTTISQLSLLNYM
notes: has a bulky D2 domain; model built from an AlphaFold model; Eleven subunits form the distal layer of the HFJ; also called C. jejuni FlgL; source: endogenous, C. jejuni ΔflhG ΔflaAB minicells, imaged in situ
B2: in data set [2], the “stoichiometry N” value came to 11 subunits.

B3: FlgE hook protein (S. enterica) (natural protein)
chain: MSFSQAVSGLNAAATNLDVIGNNIANSATYGFKSGTASFADMFAGSKVGLGVKVAGITQDFTDGTTTNTGRGLDVAISQNGFFRLVDSNGSVFYSRNGQFKLDENRNLVNMQGMQLTGYPATGTPPTIQQGANPAPITIPNTLMAAKSTTTASMQINLNSTDPVPSKTPFSVSDADSYNKKGTVTVYDSQGNAHDMNVYFVKTKDNEWAVYTHDSSDPAATAPTTASTTLKFNENGILESGGTVNITTGTINGATAATFSLSFLNSMQQNTGANNIVATNQNGYKPGDLVSYQINNDGTVVGNYSNEQEQVLGQIVLANFANNEGLASQGDNVWAATQASGVALLGTAGSGNFGKLTNGALEASNVDLSKELVNMIVAQRNYQSNAQTIKTQDQILNTLVNLR
notes: FlgE, flagellar hook protein of Salmonella enterica subsp. enterica serovar Typhimurium LT2; […]; There are 13 copies in the HFJ model; source: endogenous, S. enterica strain EM16009; part of purified short flagella
As to B3, in data set [1], the binding result is reported as “binds”.

B4: FliD filament cap protein (C. jejuni) (natural protein)
chain: MAFGSLSSLGFGSGVLTQDTIDKLKEAEQKARIDPYTKKIEENTTKQKDLTEIKTKLLSFQTAVSSLADATVFAKRKVVGSISDNPPASLTVNSGVALQSMNINVTQLAQKDVYQSKGLANDGGFVNAQLNGTADLTFFSNGKEYTVTVDKNTTYRDLADKINEASGGEIVAKIVNTGEKGTPYRLTLTSKETGEDSAISFYAGKKDSNGKYQKDINAEKIFDDLGWGLDVSASIDPDKDKKGYGIKDASLHIQTAQNAEFTLDGIKMFRSSNTVTDLGVGMTLTLNKTGEINFDVQQDFEGVTKAMQDLVDAYNDLVTNLNAATDYNSETGTKGTLQGISEVNSIRSSILADLFDSQVVDGTTEDANGNKVNTKVMLSMQDFGLSLNDAGTLSFDSSKFEQKVKEDPDSTESFFSNITKYEDINHTGEVIKTGSLSKYLNSNGGNTNGLEFKPGDFTIVFNNQTYDLSKNSDGTNFKLTGKTEEELLQNLANHINSKGIEGLKVKVESYNQNNVTGFRLNFSGDGSSDFSIKGDANILKELGLSDVNITSKPIEGKGIFSKLKATLQEMTGKDGSITKYDESLTNDIKSLNTSKDSTQAMIDTRYDTMANQWLQYESILNKLNQQLNTVTNMINAANNSNN
notes: has an additional domain D4; model built from an AlphaFold model; Five subunits form the pentameric cap on the HFJ; also called C. jejuni FliD; FliD cap of C. jejuni; source: endogenous, C. jejuni ΔflhG ΔflaAB minicells, imaged in situ
For the molecule B4, the “stoichiometry N” value in data set [2] was found to be 5 subunits.

B5: FlgK hook-filament junction protein (C. jejuni) (natural protein)
chain: MGIFGTLYTGVTGLKASEVQIATTGNNISNANATFYTRQRVVQTTNGYITTGGVQVGTGTAVESIVRLHDEYSYYKLKGASTQLEYTKYMASTLQEIAQRFPDLQNTGILQDLENYNKAWNDFASNPNENATKIALVKASQTLTESVNNTFATLDKIQKKVNDDIKNTVDEINRIGEEIATINKQIYGQEALPTEHANELRDRRDELELTLSKLVSAVASKNEINQDNRLDTTITDPGHQYNLSIEGFSIVDGINFHPLKLDYDDKNKSYSIYYETPDEKVRDLTAKISGGQLGAQLDLRGRNYSKSEGKYEDGIIQGYMDSLDTFAKTMINETNNLYASSAKSSVTSDYLSGLKGDIPLVNYDRTIQPGSFDIVIYDDKGDKKLTKTITIDVNTTMNDIMRQINANTDDNDNKNSNDDVDDHINASFSYDAKTGDGLFQINAKSGFKVAIEDKGTNFAGAFSIGGFFSGTDASDMKVKDSILNDPSTVRASSNGVDSGNDMANKIIQLQYKKVNFYNEDGTIDNLTMEEYYRKLTGKIASDGENNNVVNSSNETLYNSVYSEYQSKSGVNTNEELAALIQYQSSYGAAAKIVSTVDQMLDTLLGLKS
notes: model built from an AlphaFold model; Eleven subunits form the proximal layer of the HFJ; also called C. jejuni FlgK; source: endogenous, C. jejuni ΔflhG ΔflaAB minicells, imaged in situ
As to B5, in data set [2], the “stoichiometry N” value came to 11 subunits.

B6: FliD filament cap protein (S. enterica) (natural protein)
chain: MASISSLGVGSNLPLDQLLTDLTKNEKGRLTPITKQQSANSAKLTAYGTLKSALEKFQTANTALNKADLFKSTVASSTTEDLKVSTTAGAAAGTYKINVTQLAAAQSLATKTTFATTKEQLGDTSVTSRTIKIEQPGRKEPLEIKLDKGDTSMEAIRDAINDADSGIAASIVKVKENEFQLVLTANSGTDNTMKITVEGDTKLNDLLAYDSTTNTGNMQELVKAENAKLNVNGIDIERQSNTVTDAPQGITLTLTKKVTDATVTVTKDDTKAKEAIKSWVDAYNSLVDTFSSLTKYTAVEPGEEASDKNGALLGDSVVRTIQTGIRAQFANSGSNSAFKTMAEIGITQDGTSGKLKIDDDKLTKVLKDNTAAARELLVGDGKETGITTKIATEVKSYLADDGIIDNAQDNVNATLKSLTKQYLSVSNSIDETVARYKAQFTQLDTMMSKLNNTSSYLTQQFTAMNKS
notes: FliD, flagellar filament cap protein of Salmonella enterica subsp. enterica serovar Typhimurium LT2; domains D0 to D3; […]; Five subunits form the pentameric cap at the distal end of the filament; also called FliD cap; filament cap complex; source: endogenous, S. enterica strain EM16009; part of purified short flagella (DDM lysis, ultracentrifugation)
B6: in data set [3], the binding result is “binds”. Also, the “stoichiometry N” value in data set [4] worked out at 5 subunits.

B7: FlgL hook-filament junction protein (S. enterica) (natural protein)
chain: MRISTQMMYEQNMSGITNSQAEWMKLGEQMSTGKRVTNPSDDPIAASQAVVLSQAQAQNSQYALARTFATQKVSLEESVLSQVTTAIQTAQEKIVYAGNGTLSDDDRASLATDLQGIRDQLMNLANSTDGNGRYIFAGYKTEAAPFDQATGGYHGGEKSVTQQVDSARTMVIGHTGAQIFNSITSNAVPEPDGSDSEKNLFVMLDTAIAALKTPVEGNNVEKEKAAAAIDKTNRGLKNSLNNVLTVRAELGTQLSELSTLDSLGSDRALGQKLQMSNLVDVDWNSVISSYVMQQAALQASYKTFTDMQGMSLFQLNR
notes: FlgL, hook-filament junction protein (distal layer) of Salmonella enterica subsp. enterica serovar Typhimurium LT2; […]; Eleven subunits form the distal layer of the hook-filament junction; also called HFJ; FlgKL; source: endogenous, S. enterica strain EM16009; part of purified short flagella
With B7, in data set [5], the binding result is given as “binds”. Further, in data set [1], the “stoichiometry N” value was determined as 11 subunits.

In general, stoichiometry N refers to a count of units in the complex or per binding partner.
